Measured values reported in publication PMC10421887 (Scientific Reports, 2023).

Biological target: T1, SARS-CoV-2 Nucleocapsid Protein with GST-tag, biotinylated (Severe acute respiratory syndrome …, UniProt P0DTC9)
T1 construct: also called NP; N-GST
Test: ELISA; […], room temperature; […]
Conditions: one partner purified

B1: Fab N1G1 (Fab, V domains shown)
VH: EVQLLESGGGLVQPGGSLRLSCAASGFTFSDYYMHVRQAPGKGLEWVSEINPSSGNTDYADSVKGRFTISRDNSKNTLYLQMNSLRAEDTAVYYCAREYEEHGYYLTDYYFDYWGQGTLVTVSS
VL: EIVLTQSPGTLSLSPGERATLSCRASQSVSSSALAWYQQKPGQAPRLLIYGASSRATGVPDRFSGSGSGTDFTLTISRLEPEDFAVYYCQQMHSTPWTFGQGTKVEIK
notes: also called positive control for anti-NP1 & 2 screening
binding result: binds
